Consider 3 molecules from US20150299263A1 (FACTOR THERAPEUTICS, published 2015).

Where no end group is shown, it is not given here.

Assay [1] deals with T1, Human receptor grade IGFBP-3 (insulin-like growth factor binding protein 3) (human, UniProt P17936 28-291).
T1 construct: Bought recombinant protein, overlaid in solution on the VN-peptide array
As to the kind of experiment: VN-peptide array, ligand overlay, immunoblot/ECL. Background: A western blot detects proteins with antibodies after separation by electrophoresis.

Assay [2] deals with T2, Human receptor grade IGFBP-5 (insulin-like growth factor binding protein 5) (human, UniProt P24593 21-272).
T2 construct: Bought recombinant protein, overlaid in solution on the VN-peptide array
T2 sequence (P24593 21-272 limits assumed): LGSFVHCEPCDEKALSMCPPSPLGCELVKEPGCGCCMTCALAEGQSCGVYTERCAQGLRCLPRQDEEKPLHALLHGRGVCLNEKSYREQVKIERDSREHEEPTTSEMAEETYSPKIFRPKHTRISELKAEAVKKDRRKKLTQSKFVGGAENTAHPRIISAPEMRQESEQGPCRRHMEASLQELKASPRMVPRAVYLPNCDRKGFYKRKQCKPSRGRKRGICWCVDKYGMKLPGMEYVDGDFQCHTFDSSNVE
Nature of the assay: VN-peptide array, ligand overlay, immunoblot/ECL.

In assay [3] the target is T3, Human receptor grade IGF-II (insulin-like growth factor II) (human, UniProt P01344 25-91).
T3 construct: Bought recombinant protein, overlaid in solution on the VN-peptide array
T3 sequence (P01344 25-91 limits assumed): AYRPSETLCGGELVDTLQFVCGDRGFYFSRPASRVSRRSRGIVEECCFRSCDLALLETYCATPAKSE
Nature of the assay: VN-peptide array, ligand overlay, immunoblot/ECL, TotalLab spot intensity. How it is done: Methanol or ethanol was used to enhance the rehydration of peptide spots that might be hydrophobic. The peptides spotted onto the membranes were activated by incubating in 3 mL of 70% ethanol for five mins. The membranes were subsequently washed three times, 10 minutes each, in 10 mL TBS (Tris Buffered Saline; 8 g NaCl, 0.2 g KCl and 6.1 g Tris Base into 1000 mL of milliQ water, pH 7) with gentle rocking. Membrane blocking was performed by incubating in 10 mL casein-based membrane blocking buffer (MBS; Sigma-Aldrich) overnight at 4° C. The following day, the membranes were washed twice, 10 minutes each, in 10 mL TBS-T (TBS+0.05% Tween-20; pH 7).
Ligands used to test binding to VN-peptides were IGFBP-3, IGFBP-5 and IGF-II. For ligand binding, four separate solutions of 1 μg/mL ligand in 10 mL MBS buffer were prepared and each membrane was incubated in one of the four ligand solutions overnight at 4° C., with gentle rocking. […] The following day, the membranes were washed three times, 10 minutes each, in 10 mL TBS-T.
The binding of the ligands to peptides within the membrane was detected using immunoblotting. The membranes were incubated overnight at 4° C. with 10 mL primary antibody solution (in MBS buffer) targeting the respective ligands. The antibodies used were anti-IGFBP-3 (1:10,000), anti-IGFBP-5 (1:10,000) and anti-IGF-II (1:5000) to detect IGFBP-3, IGFBP-5 and IGF-II respectively. The following day, the membranes were washed three times, 10 minutes each, in 10 mL TBS-T and incubated with 10 mL HRP-conjugated secondary IgG antibody diluted 1:15,000 in MBS buffer for 1 hour at room temperature. Following a further three washes of 10 minutes each, the peptide spots were visualized using ECL. The membranes were exposed onto x-ray films and developed using a film processor (AGFA CP 1000), or were imaged directly using the ChemiDoc™ XRS system (BioRad).

The target in assay [4] is T1, Human receptor grade IGFBP-3 …. Nature of the assay: rests on the VN-peptide array.
The target in assay [5] is T3, Human receptor grade IGF-II …. Nature of the assay: rests on the VN-peptide array.
Assay [6] has the same target. As to the kind of experiment: VN-peptide array, ligand overlay, immunoblot/ECL.

T1 sequence (P17936 28-291 limits assumed): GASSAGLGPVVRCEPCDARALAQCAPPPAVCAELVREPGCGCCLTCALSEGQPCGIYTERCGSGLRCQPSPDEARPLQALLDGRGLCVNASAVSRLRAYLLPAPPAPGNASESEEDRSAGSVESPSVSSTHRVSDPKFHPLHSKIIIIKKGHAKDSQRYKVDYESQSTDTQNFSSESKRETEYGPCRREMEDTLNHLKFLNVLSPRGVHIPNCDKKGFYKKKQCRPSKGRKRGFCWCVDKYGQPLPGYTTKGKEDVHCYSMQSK

B1: VN-peptide 1B (array grid A14) (peptide)
peptide: DELCSYYQSCCTDYTA
modifications: not fully specified (N-terminus); cysteine pairing not given here; also: free end capped by acetylation, immobilised on cellulose membrane (SPOT synthesis)
For B1, the binding result in assay [1] and in assay [2] was “binds” throughout. The “Intensity (against -ve control)” value in assay [3] was 12 fold over negative controls.

B2: VN peptide P8 (RVNLRTRRVDTVDPPYPRS) (peptide)
peptide: RVNLRTRRVDTVDPPYPRS
notes: Free synthetic peptide (Mimotopes) in the migration and growth assays; The array carried only its overlapping 16-mers 8A-8D; also called Peptide 8; motif-8 mimic
For B2, the binding result in assay [4] and in assay [5] was “binds” in each case.

B3: Non-binding negative control VN-peptide (KTYLFKGSQYWRFEDG) (peptide)
peptide: KTYLFKGSQYWRFEDG
modifications: also: capped by acetylation and immobilised on array, free peptide in migration assays
notes: On the array it was immobilised and capped by acetylation; in the migration assays it was a free peptide; also called Pneg; negative peptide
Turning to B3, the binding result in assay [1], in assay [6] and in assay [2] was “no binding (tested: 1 µg/mL ligand)” in each case.
